Where a SMILES comes first, the peptide text is derived from it. [ ]: non-standard residue; d: D form.

Holding throughout (test): Competitive binding assay using cell extracts (Western blot)
What all share (settings): Cell extract; PRE 10X or 20X antibody concentration
For orientation: In western blotting, separated proteins are transferred to a membrane and probed.

One assay has as its target PKC-βI (Homo sapiens, UniProt P05771). More on the design: PKC-βII by PRE 3 and PRE 4 in IMR-32 Neuroblastoma; endogenous in cells; host or cells: IMR-32 human neuroblastoma cells; key: —: no detectable affinity; Low to very low affinity at 10X or 20X or both PRE concentrations in at least one cell line in the cell extract assay; Low affinity in purified isoform assay.; Moderate affinity at 10X or 20X or both PRE concentrations in at least one cell line in the cell extract assay.; High affinity at 10X or 20X or both PRE concentrations in at least one cell line in the cell extract assay; High affinity in purified isoform assay.

The target of a further assay is T1, PKC-ζ (Homo sapiens, UniProt Q05513).
T1 sequence (Q05513 1-592): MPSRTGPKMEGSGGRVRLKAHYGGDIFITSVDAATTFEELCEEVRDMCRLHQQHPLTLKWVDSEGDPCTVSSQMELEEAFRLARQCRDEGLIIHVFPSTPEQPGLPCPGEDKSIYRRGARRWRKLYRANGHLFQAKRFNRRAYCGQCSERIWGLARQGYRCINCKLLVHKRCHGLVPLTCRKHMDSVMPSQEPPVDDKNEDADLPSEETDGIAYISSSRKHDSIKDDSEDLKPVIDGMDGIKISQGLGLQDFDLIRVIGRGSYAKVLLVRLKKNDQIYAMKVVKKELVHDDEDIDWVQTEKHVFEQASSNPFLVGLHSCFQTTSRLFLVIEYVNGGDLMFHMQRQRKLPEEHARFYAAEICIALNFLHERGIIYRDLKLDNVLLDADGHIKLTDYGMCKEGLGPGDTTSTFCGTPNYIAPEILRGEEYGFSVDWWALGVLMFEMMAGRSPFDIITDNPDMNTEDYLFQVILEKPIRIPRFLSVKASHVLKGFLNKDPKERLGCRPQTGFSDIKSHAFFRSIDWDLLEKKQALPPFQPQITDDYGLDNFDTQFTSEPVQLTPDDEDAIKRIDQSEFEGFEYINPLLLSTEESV
More on the design: cytoplasmic extracts from different cell lines expressing appropriate PKC isoforms; endogenous in cells; host or cells: H661, CCD16Lu, LnCAP, MDAMB231, Du145; key: —: no detectable affinity; Low to very low affinity at 10X or 20X or both PRE concentrations in at least one cell line in the cell extract assay; Low affinity in purified isoform assay.; Moderate affinity at 10X or 20X or both PRE concentrations in at least one cell line in the cell extract assay.; High affinity at 10X or 20X or both PRE concentrations in at least one cell line in the cell extract assay; High affinity in purified isoform assay. On the procedure:
(§1) Binding efficiency and specificity of the peptides PRE 2, 3, 4, 5, 6, 7, 8, 9, 10, 11, 12 and 13 (see Table 4) was also tested using cytoplasmic extracts from different cell lines expressing appropriate PKC isoforms as described for Example 1. Briefly, the protein cytoplasmic extracts were separated by electrophoresis and transferred onto nitrocellulose membranes by standard Western blotting procedures. The bands on the Western blots were detected with matching primary antibodies and alkaline phosphatase conjugated secondary antibody. The bands were then scanned and the relative density measurements obtained.
(§2) This procedure to assess the binding characteristics of the PREs is based on competition binding of the PRE with the primary anti-isoform PKC specific antibodies. The lower the measured band density, the greater the binding of the PRE to the PKC isoform. The PREs were added at 10 and 20 times (10×, 20×) the primary antibody concentration, according to classical competition between antigenic peptide and primary antibody. The following cell lines (obtained from the ATCC) were used: H661—NCI human lung carcinoma NSCLC; MDAMB231—human highly invasive breast cancer cell line from pleural effusion; LS180—human colon adenocarcinoma; LnCAP—human prostate adenocarcinoma; CCD16Lu—human lung fibroblasts; Du145—human prostate carcinoma brain metastasis, and T24—human bladder carcinoma.
(§3) In these cases, the 20× band density figures relative to control and 10× values were reliable.

A further assay has as its system PKC-βII. More on the design: species or system human; key: —: no detectable affinity; Low to very low affinity at 10X or 20X or both PRE concentrations in at least one cell line in the cell extract assay; Low affinity in purified isoform assay.; Moderate affinity at 10X or 20X or both PRE concentrations in at least one cell line in the cell extract assay.; High affinity at 10X or 20X or both PRE concentrations in at least one cell line in the cell extract assay; High affinity in purified isoform assay. On the procedure:
as §1, §2, §3

In another assay the target is T2, PKC-ι (Homo sapiens, UniProt P41743).
T2 construct: cytoplasmic extracts from different cell lines expressing appropriate PKC isoforms; endogenous in cells; host or cells: H661, CCD16Lu, LnCAP, MDAMB231, Du145, LS180
T2 sequence (P41743 1-596): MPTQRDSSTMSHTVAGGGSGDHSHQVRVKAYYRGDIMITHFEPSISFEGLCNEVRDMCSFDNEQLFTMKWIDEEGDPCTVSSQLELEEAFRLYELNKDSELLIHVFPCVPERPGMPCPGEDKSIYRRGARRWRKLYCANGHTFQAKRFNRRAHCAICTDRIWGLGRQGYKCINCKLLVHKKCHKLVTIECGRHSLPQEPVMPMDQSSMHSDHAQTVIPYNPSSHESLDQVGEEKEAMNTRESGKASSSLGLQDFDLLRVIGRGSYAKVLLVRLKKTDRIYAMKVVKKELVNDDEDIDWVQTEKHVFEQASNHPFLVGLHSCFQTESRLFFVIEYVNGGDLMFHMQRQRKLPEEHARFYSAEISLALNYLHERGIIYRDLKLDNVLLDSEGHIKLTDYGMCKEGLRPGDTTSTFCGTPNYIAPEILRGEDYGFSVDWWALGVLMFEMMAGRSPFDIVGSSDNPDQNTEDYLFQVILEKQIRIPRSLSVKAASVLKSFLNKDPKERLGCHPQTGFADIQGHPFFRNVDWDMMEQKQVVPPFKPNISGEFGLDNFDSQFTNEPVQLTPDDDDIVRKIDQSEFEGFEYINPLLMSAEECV
Set-up: key: —: no detectable affinity; Low to very low affinity at 10X or 20X or both PRE concentrations in at least one cell line in the cell extract assay; Low affinity in purified isoform assay.; Moderate affinity at 10X or 20X or both PRE concentrations in at least one cell line in the cell extract assay.; High affinity at 10X or 20X or both PRE concentrations in at least one cell line in the cell extract assay; High affinity in purified isoform assay. The protocol:
as §1, §2, §3

Sequence of PKC-βI (P05771 whole entry, canonical isoform): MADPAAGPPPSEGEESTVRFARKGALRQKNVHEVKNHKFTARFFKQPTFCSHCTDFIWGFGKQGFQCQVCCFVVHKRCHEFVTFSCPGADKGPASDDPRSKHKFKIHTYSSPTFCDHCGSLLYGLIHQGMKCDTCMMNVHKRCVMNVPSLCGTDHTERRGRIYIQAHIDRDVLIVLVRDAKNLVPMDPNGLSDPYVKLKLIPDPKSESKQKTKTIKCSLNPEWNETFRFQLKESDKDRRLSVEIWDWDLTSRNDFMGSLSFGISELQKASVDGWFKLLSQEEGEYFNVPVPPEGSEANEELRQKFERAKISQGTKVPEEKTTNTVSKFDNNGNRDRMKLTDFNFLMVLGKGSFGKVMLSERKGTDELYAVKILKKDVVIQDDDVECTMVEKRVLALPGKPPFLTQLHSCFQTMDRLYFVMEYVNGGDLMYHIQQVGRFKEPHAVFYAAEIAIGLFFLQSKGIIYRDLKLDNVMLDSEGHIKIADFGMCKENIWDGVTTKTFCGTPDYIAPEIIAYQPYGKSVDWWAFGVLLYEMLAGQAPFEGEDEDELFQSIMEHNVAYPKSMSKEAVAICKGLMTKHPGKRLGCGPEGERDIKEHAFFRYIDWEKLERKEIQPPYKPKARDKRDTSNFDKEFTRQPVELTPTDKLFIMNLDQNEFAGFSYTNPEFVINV

In the case of `CC[C@H](C)[C@H](NC(=O)[C@H](CO)NC(=O)[C@@H](NC(=O)CNC(=O)[C@@H](NC(=O)[C@H](CC(C)C)NC(=O)[C@H](CC(N)=O)NC(=O)[C@H](CCC(N)=O)NC(=O)[C@H](C)NC(=O)[C@H](CC(=O)O)NC(=O)CNC(=O)CNC(=O)[C@H](CCCCN)NC(=O)[C@@H](NC(=O)[C@H](CCC(=O)O)NC(=O)[C@H](CCC(N)=O)NC(=O)[C@@H](NC(=O)CNC(=O)[C@H](CCCCN)NC(=O)[C@H](C)NC(C)=O)[C@@H](C)CC)C(C)C)[C@@H](C)CC)[C@@H](C)CC)C(N)=O` [PRE 3] (Ac-AKGIQEVKGGDAQNLIGISI-NH2), on PKC-βI, the “Affinity for PKC isoform βI” value was “L”. Moreover, the “Affinity for PKC isoform ζ” value at PKC-ζ is reported as “—”. Further, in the assay on PKC-βII, the “Affinity for PKC isoform βII” value was “L”. Moreover, on PKC-ι, the “Affinity for PKC isoform ι” value is recorded as “L”.
Turning to `CC[C@H](C)[C@H](NC(=O)[C@H](CO)NC(=O)[C@@H](NC(=O)CNC(=O)[C@@H](NC(=O)[C@H](CC(C)C)NC(=O)[C@H](CC(N)=O)NC(=O)[C@H](CCC(N)=O)NC(=O)[C@H](C)NC(=O)[C@H](CC(=O)O)NC(=O)[C@H](CCCCN)NC(C)=O)[C@@H](C)CC)[C@@H](C)CC)C(N)=O` [PRE 4, Ac-KDAQNLIGISI-NH2] (Ac-KDAQNLIGISI-NH2), the “Affinity for PKC isoform βI” value on PKC-βI is reported as “H”. For the same compound, the “Affinity for PKC isoform ζ” value on PKC-ζ is reported as “—”. Moreover, in the assay on PKC-βII, the “Affinity for PKC isoform βII” value is “L”. At PKC-ι, the “Affinity for PKC isoform ι” value was “M/L”.
Take `CC[C@H](C)[C@H](NC(=O)[C@H](CO)NC(=O)[C@@H](NC(=O)CNC(=O)[C@@H](NC(=O)[C@H](CC(C)C)NC(=O)[C@H](CC(N)=O)NC(=O)[C@H](CCC(N)=O)NC(=O)[C@H](C)NC(=O)[C@H](CC(=O)O)NC(=O)[C@H](CCCCN)NC(=O)CNC(=O)CNC(=O)[C@H](CCCCN)NC(=O)[C@@H](NC(=O)[C@H](CCC(=O)O)NC(=O)[C@H](CCC(N)=O)NC(=O)[C@@H](NC(=O)CNC(=O)[C@H](CCCCN)NC(=O)[C@H](C)NC(C)=O)[C@@H](C)CC)C(C)C)[C@@H](C)CC)[C@@H](C)CC)C(N)=O` [PRE 5] (Ac-AKGIQEVKGGKDAQNLIGISI-NH2): the “Affinity for PKC isoform βI” value at PKC-βI is recorded as “H”. The “Affinity for PKC isoform ζ” value on PKC-ζ is “L/H”. The “Affinity for PKC isoform βII” value in the assay with PKC-βII is recorded as “H”.
As to Ac-ISIGILNQADK-NH2 [PRE 10], in the assay with PKC-βI, the “Affinity for PKC isoform βI” value is recorded as “M”. Moreover, the “Affinity for PKC isoform ζ” value with PKC-ζ was “M/L”. Also, the “Affinity for PKC isoform βII” value in the assay with PKC-βII is listed as “—”.
Consider “Ac-ISIGILQNADK-NH2 (not fully specified; printed as Ac-ISIGILQNADK-NH2) [PRE 7]”, for which the “Affinity for PKC isoform βI” value with PKC-βI is reported as “—”. In addition, in the assay with PKC-ζ, the “Affinity for PKC isoform ζ” value is listed as “—”. Also, the “Affinity for PKC isoform ι” value with PKC-ι is reported as “—”.
As to Ac-KDANQLIGISI-NH2 [PRE 6], the “Affinity for PKC isoform βI” value with PKC-βI is “H”. Also, in the assay with PKC-ζ, the “Affinity for PKC isoform ζ” value is on record as “—”. Further, the “Affinity for PKC isoform ι” value with PKC-ι is “—”.
Take Ac-KDAQNLI-NH2 [PRE 12]: the “Affinity for PKC isoform βI” value in the assay with PKC-βI was “—”. In the assay with PKC-ζ, the “Affinity for PKC isoform ζ” value is on record as “M/H”. In addition, the “Affinity for PKC isoform βII” value in the assay on PKC-βII is “L”. Besides, the “Affinity for PKC isoform ι” value with PKC-ι is given as “—”.
For Ac-RDAQNLI-NH2 [PRE 13], in the assay with PKC-βI, the “Affinity for PKC isoform βI” value was “—”. In addition, the “Affinity for PKC isoform ζ” value with PKC-ζ is given as “—”. Further, in the assay with PKC-ι, the “Affinity for PKC isoform ι” value is given as “—”.
As to Ac-RDAQNLIGISI-NH2 [PRE 11], the “Affinity for PKC isoform βI” value with PKC-βI was “H”. The “Affinity for PKC isoform ζ” value with PKC-ζ is given as “—”.
For “Ac-isigilqnadk-NH2 (Ac-[dI][dS][dI]G[dI][dL][dQ][dN][dA][dD][dK]-NH2; SMILES CC[C@@H](C)[C@@H](NC(C)=O)C(=O)N[C@H](CO)C(=O)N[C@@H](C(=O)NCC(=O)N[C@@H](C(=O)N[C@H](CC(C)C)C(=O)N[C@H](CCC(N)=O)C(=O)N[C@H](CC(N)=O)C(=O)N[C@H](C)C(=O)N[C@H](CC(=O)O)C(=O)N[C@H](CCCCN)C(N)=O)[C@H](C)CC)[C@H](C)CC) [PRE 9]”, the “Affinity for PKC isoform βI” value in the assay with PKC-βI is “M”. For the same compound, in the assay with PKC-ζ, the “Affinity for PKC isoform ζ” value is on record as “M/L”. Also, the “Affinity for PKC isoform βII” value in the assay with PKC-βII is recorded as “—”.
For ILEDKGGDAQNLIGISI [PRE 8], the “Affinity for PKC isoform βII” value in the assay on PKC-βII is on record as “H”.
In the case of RRKKGGKDFVVKR [PRE 1], the “Affinity for PKC isoform βI” value with PKC-βI is given as “H”. The “Affinity for PKC isoform ζ” value with PKC-ζ is listed as “L”. Besides, the “Affinity for PKC isoform ι” value in the assay with PKC-ι is “—”.
